Patent publication US20250340625A1, “ANTIBODY SPECIFICALLY BINDING TO ANGIOPOIETIN-2, OR FRAGMENT THEREOF” (NEORTESBIO INC., priority 2021, published 2025)

How the values were obtained:
[1] = test system: Tie2 downstream signaling (AKT phosphorylation) in HUVEC cells; experiment: Phospho-Akt1 (Ser473) sandwich ELISA of Tie2 downstream signaling in HUVEC cells; type: cell-based
Description: To quantitatively analyze the effect of anti-Ang2 antibodies on Tie2 downstream signaling, the level of AKT phosphorylation was measured using ELISA.
HUVEC (Lonza) cells (2×10^5) were cultured at 37° C. using EGM-2 (Lonza) medium, and when 80-90% confluency was observed, they were changed to 0.5% FBS Basal media (Lonza) and cultured at 37° C. for 16 to 24 hours. 60 nM of anti-Ang2 antibody was mixed with 40 nM of Ang2 protein (Sino Biological) and left for 30 minutes. Then, the cultured cells were treated and incubated for another 10 minutes. For comparison, groups treated with 40 nM of Ang2, 40 nM of Ang2+60 nM of anti-Ang2 control antibody (h10D6-OPTI-67, U.S. Pat. No. 10,934,350) were prepared. The cells were washed with PBS, treated with the lysis buffer, centrifuged at 13,000 rpm for 15 minutes, and the supernatant was recovered to obtain a cell lysate.
For ELISA, 50 μL of PathScan®Phospho-Akt1 (Ser473) Sandwich ELISA Antibody Pair (Cell signaling) capture antibody diluted 1:100 was added to a 96 well ps half area plate (Greiner cio-one) and coated. Then, the plate was washed four times with PBST (Phosphate Buffer Saline containing 0.05% (v/v) Tween-20) and then blocked with PBST containing 1% (v/v) skim milk at 37° C. for […]. […] Afterwards, 50 μL of Stop solution was added to stop the reaction, and the OD450 value was measured on a plate reader (BioTek).

[2] = test system: Tie2 receptor downstream signaling in HUVEC cells; experiment: Western blot of AKT and ERK 42/44 phosphorylation (Tie2 downstream signaling) in HUVEC cells; type: cell-based; settings: 60 nM anti-Ang2 antibody mixed with 40 nM Ang2, 10 minutes, FIG. 1
Description: Ang2 binds to the Tie2 receptor expressed on vascular endothelial cells and acts as a weak agonist or antagonist. Since the anti-Ang2 antibody developed in the present invention binds to Ang2 and forms a complex with Ang2-Tie2, thereby activating the Tie2 receptor and promoting downstream signaling, ERK and AKT phosphorylation experiments were performed to analyze the effect of anti-Ang2 antibodies on Tie2 downstream signaling using a cell-based assay. To compare the degree of activation of Tie2 downstream signaling, the same test was performed on the group treated with Ang2 (Sino Biological) and another Ang2 control antibody (Korean Patent Publication No. 10-2015-0136031).
Specifically, HUVEC (Lonza) cells (2×10^5) were cultured at 37° C. using EGM-2 (Lonza) medium, and when 80-90% confluency was observed, they were changed to 0.5% FBS Basal media (Lonza) for […]. Cultured at 37° C. for […]. 60 nM of anti-Ang2 antibody was mixed with 40 nM of Ang2 protein (Sino Biological) and left for 30 minutes. Then, the cultured cells were treated and incubated for another 10 minutes. For comparison, groups treated with 40 nM Ang2 and 40 nM Ang2+60 nM anti-Ang2 control antibody were prepared. […]

B1: 1D3: mouse anti-Ang2 monoclonal antibody; CDRs SEQ ID NO: 18-23, VH SEQ ID NO: 24, VL SEQ ID NO: 25 (antibody, V domains shown)
VH: DVQLQESGPGLVKPSQSLSLTCTVTGYSITSDYGWNWIRQFPGNKLEWMGYISYSGTTSYNPSLKSRISITRDTSKNQFFLQLNSVTTEDTATYYCARSEGTGFYAMDYWGQGTSVTVSSAKTTPPKLY
VL: SIVMTQTPKFLLVSAGDRVTIICKASQSVSNDVAWYQQKPGQSPKLLIYYASNRYTGVPDRFTGSGYGTDFTFTISTVQAEDLAVYFCQQDYSSPTFGGGTKLEIKRA
modifications: VH; VL
- Order of AKT phosphorylation curves in FIG. 2, from the curve with the highest value ([1]; HUVEC cells together with Ang2, printed order 1D3, 2C8, 1A9, 1H10, control 67 clone): highest
- Tie2 downstream signal (AKT phosphorylation ELISA) compared to previously known control antibodies ([1]; HUVEC cells, antibody together with 40 nM Ang2, OD450, FIG. 2): significantly stronger Tie2 downstream signal
- AKT and ERK activation signals (western blot) compared to the negative control group [2]: showed AKT and ERK activation signals
